Results from paper PMC9427990, “Dynamic mechanisms of CRISPR interference by Escherichia coli CRISPR-Cas3”.

T1: EcoCascade-crRNA(EMX1) (Escherichia coli, UniProt Q46901;P76632;Q46899;Q46898;Q46897 1-502;1-160;2-363;1-224;2-199)
T1 sequence 1: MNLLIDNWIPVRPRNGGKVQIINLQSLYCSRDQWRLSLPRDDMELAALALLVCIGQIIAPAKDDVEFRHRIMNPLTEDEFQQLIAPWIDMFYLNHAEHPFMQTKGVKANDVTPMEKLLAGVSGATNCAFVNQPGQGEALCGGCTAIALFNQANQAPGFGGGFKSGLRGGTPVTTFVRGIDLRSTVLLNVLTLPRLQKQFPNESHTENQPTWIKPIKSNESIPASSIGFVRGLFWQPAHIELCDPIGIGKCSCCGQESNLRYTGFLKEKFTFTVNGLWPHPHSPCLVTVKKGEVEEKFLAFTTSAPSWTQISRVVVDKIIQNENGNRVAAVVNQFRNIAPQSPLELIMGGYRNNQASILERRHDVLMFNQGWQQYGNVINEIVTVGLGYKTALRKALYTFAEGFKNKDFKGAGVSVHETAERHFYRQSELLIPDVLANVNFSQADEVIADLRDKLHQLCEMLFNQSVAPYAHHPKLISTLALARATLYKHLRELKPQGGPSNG
T1 sequence 2: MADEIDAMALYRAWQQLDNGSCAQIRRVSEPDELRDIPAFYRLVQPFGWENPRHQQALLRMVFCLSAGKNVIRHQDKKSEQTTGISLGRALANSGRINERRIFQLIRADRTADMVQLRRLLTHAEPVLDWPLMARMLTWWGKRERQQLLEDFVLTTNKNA
T1 sequence 3: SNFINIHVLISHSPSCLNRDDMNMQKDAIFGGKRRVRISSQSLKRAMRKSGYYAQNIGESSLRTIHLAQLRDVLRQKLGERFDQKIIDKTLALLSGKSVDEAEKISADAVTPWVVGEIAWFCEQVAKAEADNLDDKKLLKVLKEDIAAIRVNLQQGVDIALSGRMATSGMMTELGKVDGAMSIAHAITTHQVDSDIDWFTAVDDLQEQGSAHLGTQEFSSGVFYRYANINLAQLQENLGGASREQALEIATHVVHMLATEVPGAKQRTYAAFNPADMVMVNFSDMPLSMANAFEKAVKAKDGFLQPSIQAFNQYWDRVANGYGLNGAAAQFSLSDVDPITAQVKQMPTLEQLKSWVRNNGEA
T1 sequence 4: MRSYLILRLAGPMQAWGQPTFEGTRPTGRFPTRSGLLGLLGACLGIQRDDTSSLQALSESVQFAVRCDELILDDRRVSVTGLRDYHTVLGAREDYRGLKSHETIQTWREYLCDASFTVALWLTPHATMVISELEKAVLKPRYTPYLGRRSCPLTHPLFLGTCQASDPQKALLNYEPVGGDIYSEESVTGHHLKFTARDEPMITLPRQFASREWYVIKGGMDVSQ
T1 sequence 5: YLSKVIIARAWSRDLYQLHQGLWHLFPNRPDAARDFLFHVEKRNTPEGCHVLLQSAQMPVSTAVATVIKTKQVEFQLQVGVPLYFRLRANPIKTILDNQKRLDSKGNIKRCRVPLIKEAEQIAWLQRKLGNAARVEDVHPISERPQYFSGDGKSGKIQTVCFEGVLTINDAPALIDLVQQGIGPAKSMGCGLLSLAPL

B1: EMX1-AAG-12-bio (n12) (dsDNA)
DNA 1: TGGCGCATTGCCACGAAGCAGGCCAATGGGTCTTCACGATCGTGACAAGACAATGACTAG
DNA 2: CTAGTCATTGTCTTGTCACGATCGTGAAGACCCATTGGCCTGCTTCGTGGCAATGCGCCA
B2: EMX1-AAG-32-bio (n32, paired PAM) (dsDNA)
DNA 1: TGGCGCATTGCCACGAAGCAGGCCAATGGGGAGGACATCGATGTCACCTCCAATGACTAG
DNA 2: CTAGTCATTGGAGGTGACATCGATGTCCTCCCCATTGGCCTGCTTCGTGGCAATGCGCCA
B3: EMX1-AAG-0-bio (n0) (dsDNA)
DNA 1: TGGCGCATTGCCACGAAGACTTAACCGTTTTCTTCACGATCGTGACAAGACAATGACTAG
DNA 2: CTAGTCATTGTCTTGTCACGATCGTGAAGAAAACGGTTAAGTCTTCGTGGCAATGCGCCA
B4: EMX1-AAG-6-bio (n6) (dsDNA)
DNA 1: TGGCGCATTGCCACGAAGCAGGCCCCGTTTTCTTCACGATCGTGACAAGACAATGACTAG
DNA 2: CTAGTCATTGTCTTGTCACGATCGTGAAGAAAACGGGGCCTGCTTCGTGGCAATGCGCCA

The binders below were run against T1, EcoCascade-crRNA(EMX1) (assay: BLI; BLI: PBS, 0.01% Tween 20, 0.02% BSA, 20 uM EcoCascade analyte, biotinylated DNA on streptavidin; temperature not stated; EMSA conditions not in material). Settings: protein: recombinant; tags: hexahistidine tag on Cas11, removed with HRV3C; copies: 1;2;6;1;1; label: Biotin-TEG; blunt.
B1: no binding. B2: binds. B3: no binding. B4: no binding.
